# Data from the supplement of paper PMC12042874.
# ± gives the uncertainty stated by the source.
# Assay: amyloid nucleation score (Sup35N fusion, yeast selection) (log enrichment); library NNK1; higher = more nucleation; inactive = no reads after selection
# Procedure, shortened: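 Sup35N was fused to peptides of 20 random codons and expressed in psi-negative yeast, which were induced with 100 μM copper sulfate for 24 hours and then grown on medium lacking adenine and uracil for 7 days at 30°C. Plasmid inserts from input and output were sequenced on Illumina. The nucleation score is the DiMSum log enrichment of output over input reads, centred on the mode score of non-aggregating sequences. Sequences with under 100 input reads were left out, and random libraries had three technical output replicates.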
row,Substance,amyloid nucleation score
1,TRSMALL,-0.098 ± 0.71
2,TRVYIYRTGIWFYLTSNSFT,0.577 ± 0.43
3,TRYPLNISEVFRFDFPNRIP,-1.32 ± 2.4
4,TRYSTSISGC,0.332 ± 0.69
5,TRYTKKWQVLTDWSVGYTGT,-0.443 ± 0.41
6,TRYVNMIFPPLVCWGDEILW,0.873 ± 0.77
7,TSFFADYVHTIKLLAPLSVG,inactive
8,TSGHNVIPRGTVSSVVRILY,-0.498 ± 0.36
9,TSINGYSVAKSGGSMYCIGM,-0.194 ± 0.67
10,TSIRRRLVRFFFNILPVVGL,1.67 ± 0.17
11,TSPYAFKRWFSLGLYDLSRF,inactive
12,TSRVH,0.228 ± 1.2
13,TSRYVFRT,0.925 ± 0.58
14,TSSMCVFVSGNSEFVLWALE,0.286 ± 0.51
15,TSSPKRFLIMKVNCIIILDL,-0.721 ± 0.68
16,TSTSC,0.223 ± 0.51
17,TSVNMVIYILLVNFMKFLVG,1.37 ± 0.45
18,TSVSARFFFCRKISRMHRSS,-0.885 ± 1.1
19,TSVSNMFENPKNLSLVPTVG,1.94 ± 0.5
20,TSYIQW,-0.359 ± 0.29
21,TSYQA,-0.115 ± 0.22
22,TTASVSSEI,-0.441 ± 1.2
23,TTEHAK,-0.263 ± 0.2
24,TTFFFDF,2.59 ± 0.18
25,TTGSALTETATDQVGWNYSL,0.265 ± 0.41

row,Substance,amyloid nucleation score
1,TTKSLSVSLGGHYYVTRVRR,0.81 ± 0.83
2,TTLVKPDEIVFVSINECWCW,0.021 ± 0.59
3,TTPFLHKENLNSIMK,0.396 ± 0.26
4,TTQDCNLRD,-0.021 ± 0.34
5,TTSCNGLFERAKNSTNSPDI,-2.25 ± 2.4
6,TTSFRHSVYQDYGLSVIDCG,-0.351 ± 0.78
7,TTSPGSNSRDPAGMMIT,0.38 ± 0.32
8,TTTKLGPMLLGRNSVYCV,2.31 ± 0.25
9,TTTRVFS,0.813 ± 0.81
10,TVAFWF,inactive
11,TVANT,0.888 ± 1.1
12,TVFRTSFLWHGMGRGLVR,1.03 ± 0.59
13,TVGSLRAW,1.15 ± 0.62
14,TVLKVSTEYFFLMKESGVVC,0.593 ± 0.26
15,TVNCFDYSVSGVSSNRV,0.882 ± 0.66
16,TVRKDGNTRSFFSSLRMQAS,-0.654 ± 0.3
17,TVRVVDLGQVVGSGVMASMP,1.23 ± 0.17
18,TVSKNMYR,-0.259 ± 0.5
19,TVTAVY,inactive
20,TVVWFTLIFLSLESSCINSL,1.22 ± 0.2
21,TVYLSNCERIYMQWVREFVS,2.68 ± 0.14
22,TVYSMPKVTKTYGGFPAKSH,0.312 ± 0.34
23,TWDSPVPG,0.208 ± 0.29
24,TWKLATCIWRSLF,-0.238 ± 0.21
25,TWLTRYLPLNEFRMG,0.776 ± 0.36

row,Substance,amyloid nucleation score
1,TWSSKIEDSSAYYDG,1.65 ± 0.36
2,TWSTGAMPML,-0.344 ± 0.84
3,TWYILMTRGILGTAATHIRL,-0.234 ± 0.91
4,TYDLPTYIILVSPQYLCANT,-0.06 ± 0.27
5,TYGGYR,-0.343 ± 0.93
6,TYLAVGLMHYEWRGDSVSTD,-0.603 ± 0.32
7,TYLRKIKKRFPGSRYPSLMG,0.15 ± 0.46
8,TYLRMCGSSTR,-0.14 ± 0.3
9,TYLVILR,0.33 ± 0.39
10,TYLYNYILASSLSHRALYNA,1.62 ± 0.73
11,TYNVLSTLWRFCVIVLRICC,0.558 ± 1.1
12,TYRCGHLLGFVY,inactive
13,TYRTLAARRWQLAYALWVLL,-0.474 ± 0.6
14,TYWFMSRC,0.254 ± 0.88
15,TYWYSVRNVAQLCPVEGYQS,-0.102 ± 0.7
16,TYYSGDSAYLPIDAIMLVWY,-1.07 ± 0.65
17,TYYTVTEISHVGWTYFGYVR,-0.151 ± 0.64
18,VAAACFFNRCWEHTYVMIVK,3.1 ± 0.17
19,VAEVKRFCELLLK,-0.29 ± 1.7
20,VAGGDHAAHWKLAVKNPPPS,0.1 ± 0.56
21,VAISDDDVLVWMYFS,0.154 ± 0.44
22,VALID,-0.215 ± 1.7
23,VAPQGNPMWSKDLL,1.8 ± 0.18
24,VARSHYMCI,0.132 ± 0.38
25,VASRFVCWCRGQAQWVSQCN,0.434 ± 0.45

row,Substance,amyloid nucleation score
1,VAVLGNFL,inactive
2,VCFWSGEGNLGAWDGHELSM,0.693 ± 0.46
3,VCIFCFRGGMVKRPTLDMVY,0.564 ± 0.19
4,VCKWSVMNHFVVITYHYVMA,0.671 ± 0.3
5,VCLSSLIRMCKYSFPDGTGH,6.813 ± 0.051
6,VCMISAQYYLDIMMGRCNVI,0.468 ± 0.36
7,VCMWRFLVGRT,-0.238 ± 0.9
8,VCPVHSNKGLQFLSMRHYSS,0.511 ± 0.87
9,VCRKRCERQLKPL,0.241 ± 0.24
10,VCTYGFGC,inactive
11,VCVLSGRK,-0.416 ± 0.38
12,VCVNSENHNFT,inactive
13,VCVSIGWFCCSGCCLAQRLW,7.2 ± 0.065
14,VDFLSTNFWSLSVPVAFLGV,-0.31 ± 0.54
15,VDHTSMWCGFLYTSCLGPDF,-0.758 ± 1.2
16,VDLGRSKWCLTMYESYENGR,-0.127 ± 0.3
17,VDPGDVVFLLRPRSEHWGVG,2.12 ± 0.18
18,VDSDLGLSERMTVKSTFAFC,0.39 ± 0.56
19,VDSHVYRNT,-0.203 ± 1.1
20,VDVSNLKCLQE,0.335 ± 0.42
21,VDYFFMGAGFEL,4.53 ± 0.077
22,VECAYSVTFSKMNRNTDFRV,0.265 ± 0.35
23,VEGRRFDINAWRDWTKGVR,-0.238 ± 0.3
24,VEIYGCTSPDQWSVANSCTA,0.047 ± 0.36
25,VESTCTNMRCYLGWFIPPF,0.387 ± 0.2

row,Substance,amyloid nucleation score
1,VEVYFSFLNLIFSGMSVLVE,0.129 ± 0.28
2,VFASVRLSCMEGGTLVG,0.241 ± 0.33
3,VFCVRYLRANISCEGHDGWY,2.28 ± 0.14
4,VFGIRFLI,-1.54 ± 2.7
5,VFGKITSWWFRTIDFWERRI,-0.428 ± 0.64
6,VFILALVELFGVQWLVVYNW,-0.42 ± 0.47
7,VFKCVNFS,inactive
8,VFKFKTM,1.24 ± 0.81
9,VFLIEQPMERCK,0.199 ± 0.22
10,VFLKCFRYTFNNHINFFCVG,5.96 ± 0.064
11,VFLKHAPRGI,-0.077 ± 1.7
12,VFLSCHQSLRVFVACYWHWY,0.672 ± 0.33
13,VFLVIVRYWCFFYHPVDTAN,inactive
14,VFMSIRMWAFDLLYVSCGLA,-0.808 ± 0.42
15,VFNARVSYSFNSMCWVRKKQ,-2.08 ± 2.7
16,VFNMTYRKIRVTE,inactive
17,VFNRFCYSSFCLTYRDYDSQ,8.198 ± 0.07
18,VFNTSRLFRSLYPK,0.573 ± 0.82
19,VFPDASSMRVRGGIDTAQEL,0.037 ± 0.46
20,VFPFPLGFDFKNHERKSVV,-1.24 ± 0.58
21,VFQLIVTTFLSCVGFHKVMW,-0.658 ± 0.6
22,VFTGLLLL,-0.034 ± 0.36
23,VFVSIMWQY,1.82 ± 0.51
24,VFVSKNWGTCRHGRDSCC,0.507 ± 0.26
25,VFVSWHKVCTNQRSLRQVHL,1.56 ± 0.48

row,Substance,amyloid nucleation score
1,VFWTYVGERKKSLVCRNLGA,-0.189 ± 0.71
2,VFYACSTPRPSQNASVDFRL,-0.035 ± 0.61
3,VGDCSSVFCVTSFDWVSFYV,2.89 ± 0.098
4,VGDKQFHTKYMVA,0.031 ± 1.1
5,VGDWFSLVENWVVWSFSLIC,-1.89 ± 2.1
6,VGDYFFGDDSIGGSRMHVSY,1.15 ± 0.65
7,VGESHCLNADLVSYQHN,-0.374 ± 0.6
8,VGIPGGWIQNITFSSMKDFF,4.9 ± 0.065
9,VGLMAVLRVGRKGLPLKNME,-0.082 ± 0.31
10,VGNRSFNIFGTMCKMLQWTE,-0.715 ± 1.1
11,VGNVRPVFDTALTTWRRCCF,0.223 ± 0.49
12,VGRLGKFRGFSIGNYECSI,0.726 ± 0.55
13,VGSGSDQQYALMSNLYSKLS,1.02 ± 0.7
14,VGSTKSDVTDFLDCMNGLEW,0.462 ± 0.63
15,VGVVCLKFLP,-0.064 ± 0.43
16,VHSCIYVSKTSLELARYQML,inactive
17,VHSWQVVRYFRFLVLYSWDR,0.539 ± 0.42
18,VIDAIQPRKYGFV,-0.462 ± 0.58
19,VIGDLSYRSYI,0.44 ± 0.4
20,VIGSMVGLI,0.668 ± 0.31
21,VIHLSVSWLGMLSGWANLFV,-0.529 ± 0.94
22,VIIAEVDVVA,-0.186 ± 0.57
23,VIIKTRLELYKWRTMISSND,-0.454 ± 0.63
24,VIILNVVFNLLYEKAFFFR,0.278 ± 0.68
25,VILSARSFMTIHGHYCTYRV,0.474 ± 0.88

row,Substance,amyloid nucleation score
1,VILSCSLLFCFNRSWGLGNE,7.04 ± 0.067
2,VIMCNI,0.068 ± 0.93
3,VINWLCWVYLECLWYYWMVG,inactive
4,VIQRYRSVPI,0.604 ± 0.67
5,VISRSVDYTPM,-0.599 ± 0.46
6,VITNVRL,-0.089 ± 0.35
7,VIVSSWLLTCTYSRYMRY,-1.5 ± 2.7
8,VKIKEKFKA,-0.189 ± 0.42
9,VKKRGDQLSLCWCLPRDLLL,0.612 ± 0.59
10,VKLSMLWLMARLWGRLTCSG,-0.293 ± 0.47
11,VKLSYGWVLSGAELTEYVTM,-0.782 ± 0.54
12,VKNRNKGTYRCWVVYITGKS,-0.205 ± 0.28
13,VKRKGAKISWQGAILRASVV,-0.963 ± 0.7
14,VKSWKLERRMRVAMLDTLVI,0.367 ± 1.2
15,VKSWVPTDVGFEQQSGREVL,0.093 ± 0.25
16,VLAPF,inactive
17,VLAPFVLPC,-0.406 ± 0.41
18,VLAVCKVYASWYFTFWMF,4 ± 0.088
19,VLAVLVFSGCGGVRGTSNLT,1.54 ± 0.14
20,VLCGNPLFRFVLGWRFCVWG,0.335 ± 1.1
21,VLCSRIYDHAWAKG,inactive
22,VLCVSRRSAIYTWGSSLYCD,-0.691 ± 1.4
23,VLDEYFCNLC,5.989 ± 0.058
24,VLEYKD,-1.97 ± 2.4
25,VLFFKVIIYVALRMVLMEKD,-1.18 ± 1
